Ends that are not written are not given here.
B1: TMP4 (22-residue capped peptide) (peptide)
peptide: QGALRDGPTLKQWLEYRRQAHS
notes: two-residue caps at each end; also called TMP04
B2: TMP2 (22-residue capped peptide) (peptide)
peptide: QGGAREGPTLRQWLEWVRVGHS
notes: two-residue caps at each end; also called TMP02
B3: TMP3 (22-residue capped peptide) (peptide)
peptide: QGRDLDGPTLRQWLPLPSVQHS
notes: two-residue caps at each end; also called TMP03

Biological target: T1, Recombinant human MPL (human, UniProt P40238 26-491, limits assumed)
T1 construct: also called hu-mpl; hu-MPL
T1 sequence (looked up): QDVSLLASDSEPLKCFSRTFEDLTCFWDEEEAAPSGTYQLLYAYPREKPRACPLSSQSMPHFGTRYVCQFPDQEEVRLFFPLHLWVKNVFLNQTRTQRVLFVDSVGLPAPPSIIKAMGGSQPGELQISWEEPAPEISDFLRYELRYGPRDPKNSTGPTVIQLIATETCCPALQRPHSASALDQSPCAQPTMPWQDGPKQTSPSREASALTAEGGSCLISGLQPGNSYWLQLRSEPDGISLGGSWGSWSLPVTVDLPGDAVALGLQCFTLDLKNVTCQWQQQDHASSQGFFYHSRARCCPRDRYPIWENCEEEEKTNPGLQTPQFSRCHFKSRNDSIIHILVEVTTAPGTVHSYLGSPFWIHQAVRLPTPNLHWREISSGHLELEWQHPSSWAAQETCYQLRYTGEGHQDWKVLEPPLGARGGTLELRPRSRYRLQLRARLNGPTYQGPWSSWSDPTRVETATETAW
Assay: phage ELISA titration: phagemid particles displaying the peptide, 5-fold dilution series (cfu/ul), on plate-coated recombinant human MPL, HRP-anti-M13 detection, chemiluminescent readout (Example 1, sections 4B and 5)

Binder | EC50 (read off the curve) [cfu/ul]
B1 | ~100000
B2 | ~400000
B3 | ~200000
QGWCKEGPTLREWLRWGFLCHS (not fully specified; cysteine pairing not given here, two-residue caps at each end; Two Cys) [TMP21 (22-residue capped peptide)] | ~800000
QGCSSGGPTLREWLQCRRMQHS (not fully specified; cysteine pairing not given here, two-residue caps at each end; Two Cys) [TMP22 (22-residue capped peptide)] | ~200000
QGCSWGGPTLKQWLQCVRAKHS (not fully specified; cysteine pairing not given here, two-residue caps at each end; Two Cys) [TMP23 (22-residue capped peptide)] | ~100000

— patent publication US20110229472A1 (Amgen, published 2011)
